Reference: US20260232732A1 (FUNDACI INSTITUT DE RECERCA CONTRA LA LEUC MIA JOSEP …, published 2026)
Each block holds one binder with its values, some of them ahead of it. Where no end group is shown, it is not given here. The star is where a group is joined. Biotin = O=C1N[C@H]2[C@H](CS[C@H]2CCCCC(=O)*)N1

Columns and labels:
[1] = target: T1, naked peptide MTPTDFTSPI (human); test: ELISA naked peptide; scFv 1 ug/mL; repI
T1 peptide: MTPTDFTSPI
Description: (§1) The peptides were synthesized naked or with a N-terminal Biotin modification with a purity of >98%. All four scFvs were verified by ELISA that can be detected with anti-His antibodies. ELISA was performed for scFv-peptide binding validation. Briefly, naked peptides were coated (50 μg/mL) in 0.58M carbonate-bicarbonate buffer pH9.5, 100 μL/well, 4° C. O/N. Then after blocking (3% BSA-PBS, 300 μL/well 37° C. 1.5 h) and washing (PBS+Tween-20 0.05% v/v (0.05% PBST), wells were incubated with each purified scFv antibody at concentration of 1 μg/mL in PBS at 37° C. 1 h. After washing (0.05% PBST), wells were incubated with secondary antibodies (goat anti-His IgG-HRP) in PBS, 37° C., 30 min. After washing, and incubation with TMB substrate, reactions were stopped with 2M HCl and reading was quantified at OD450.
(§2) Then a library of overlapping peptides were designed and constructed separately to produce 16 different peptides, covering full antigen sequence of total 48 aa. Peptide size was 10aa, with 7aa overlapping and ELISA screening of scFv against each peptide was performed in duplicate. Screening was performed using naked peptides in a standard plate or biotinylated peptides using avidin-plates.

[2] = target: T2, naked peptide TDFTSPIPNM (human); test: ELISA naked peptide; scFv 1 ug/mL; repI
T2 peptide: TDFTSPIPNM
Description: as §1, §2

[3] = target: T3, naked peptide TSPIPNMADD (human); test: ELISA naked peptide; scFv 1 ug/mL; repI
T3 peptide: TSPIPNMADD
Description: as §1, §2

[4] = target: T4, naked peptide IPNMADDYGS (human); test: ELISA naked peptide; scFv 1 ug/mL; repI
T4 peptide: IPNMADDYGS
Description: as §1, §2

[5] = target: T5, naked peptide MADDYGSEST (human); test: ELISA naked peptide; scFv 1 ug/mL; repI
T5 peptide: MADDYGSEST
Description: as §1, §2

[6] = target: T6, naked peptide DYGSESTSSM (human); test: ELISA naked peptide; scFv 1 ug/mL; repI
T6 peptide: DYGSESTSSM
Description: as §1, §2

[7] = target: T7, naked peptide SESTSSMEDY (human); test: ELISA naked peptide; scFv 1 ug/mL; repI
T7 peptide: SESTSSMEDY
Description: as §1, §2

[8] = target: T8, naked peptide TSSMEDYVNF (human); test: ELISA naked peptide; scFv 1 ug/mL; repI
T8 peptide: TSSMEDYVNF
Description: as §1, §2

[9] = target: T9, naked peptide SSMEDYVNFN (human); test: ELISA naked peptide; scFv 1 ug/mL; repI
T9 peptide: SSMEDYVNFN
Description: as §1, §2

[10] = target: T10, naked peptide SMEDYVNFNF (human); test: ELISA naked peptide; scFv 1 ug/mL; repI
T10 peptide: SMEDYVNFNF
Description: as §1, §2

[11] = target: T11, naked peptide MEDYVNFNFT (human); test: ELISA naked peptide; scFv 1 ug/mL; repI
T11 peptide: MEDYVNFNFT
Description: as §1, §2

[12] = target: T12, naked peptide YVNFNFTDFY (human); test: ELISA naked peptide; scFv 1 ug/mL; repI
T12 peptide: YVNFNFTDFY
Description: as §1, §2

[13] = target: T13, naked peptide FNFTDFYCEK (human); test: ELISA naked peptide; scFv 1 ug/mL; repI
T13 peptide: FNFTDFYCEK
Description: as §1, §2

[14] = target: T14, naked peptide TDFYCEKNNV (human); test: ELISA naked peptide; scFv 1 ug/mL; repI
T14 peptide: TDFYCEKNNV
Description: as §1, §2

[15] = target: T15, naked peptide YCEKNNVRQF (human); test: ELISA naked peptide; scFv 1 ug/mL; repI
T15 peptide: YCEKNNVRQF
Description: as §1, §2

[16] = target: T16, naked peptide KNNVRQFAS (human); test: ELISA naked peptide; scFv 1 ug/mL; repI
T16 peptide: KNNVRQFAS
Description: as §1, §2

[17] = target: T17, biotin-peptide YVNFNFTDFY (human); test: ELISA biotin-peptide; scFv 10 ug/mL; repII
T17 peptide: Biotin-YVNFNFTDFY
Description: as §1
(§3) ELISA with biotin-conjugated peptides (5 μg/mL) was performed very similar to described above with minor modifications.

[18] = target: T18, biotin-peptide TSSMEDYVNF (human); test: ELISA biotin-peptide; scFv 0.3125 ug/mL; repI
T18 peptide: Biotin-TSSMEDYVNF
Description: as §1, §3
(§4) A full curve ELISA was performed for each positive scFv/biotin-peptide pair in order to confirm previous results. Tables 15-17 show ELISA results of the dose-dependent full curve for each positive peptide with scFv “CCR9_HUM”, “Comp-2” and “Comp-3”, respectively.

[19] = target: T19, biotin-peptide SSMEDYVNFN (human); test: ELISA biotin-peptide; scFv 0.3125 ug/mL; repI
T19 peptide: Biotin-SSMEDYVNFN
Description: as §1, §3, §4

[20] = target: T20, biotin-peptide SMEDYVNFNF (human); test: ELISA biotin-peptide; scFv 0.3125 ug/mL; repI
T20 peptide: Biotin-SMEDYVNFNF
Description: as §1, §3, §4

[21] = target: T21, biotin-peptide MEDYVNFNFT (human); test: ELISA biotin-peptide; scFv 0.3125 ug/mL; repI
T21 peptide: Biotin-MEDYVNFNFT
Description: as §1, §3, §4

[22] = target: T22, biotin-peptide MTPTDFTSPI (human, also: prints MTPTDFTSP, without I10); test: ELISA, biotin-peptide
T22 peptide: Biotin-MTPTDFTSPI

[23] = target: T23, biotin-peptide TDFTSPIPNM (human); test: ELISA, biotin-peptide
T23 peptide: Biotin-TDFTSPIPNM

[24] = target: T24, biotin-peptide IPNMADDYGS (human); test: ELISA, biotin-peptide
T24 peptide: Biotin-IPNMADDYGS

[25] = target: T25, biotin-peptide MADDYGSEST (human); test: ELISA, biotin-peptide
T25 peptide: Biotin-MADDYGSEST

[26] = target: T26, biotin-peptide SESTSSMEDY (human); test: ELISA, biotin-peptide
T26 peptide: Biotin-SESTSSMEDY

[27] = target: T18, biotin-peptide TSSMEDYVNF; test: ELISA, biotin-peptide
[28] = target: T19, biotin-peptide SSMEDYVNFN; test: ELISA, biotin-peptide
[29] = target: T20, biotin-peptide SMEDYVNFNF; test: ELISA, biotin-peptide
[30] = target: T21, biotin-peptide MEDYVNFNFT; test: ELISA, biotin-peptide
[31] = target: T27, biotin-peptide FNFTDFYCEK (human); test: ELISA, biotin-peptide
T27 peptide: Biotin-FNFTDFYCEK

[32] = target: T28, biotin-peptide KNNVRQFAS (human); test: ELISA, biotin-peptide
T28 peptide: Biotin-KNNVRQFAS

- OD450 [1]: 0.03 OD
- OD450 [2]: 0.04 OD
- OD450 [3]: 0.02 OD
- OD450 [4]: 0.02 OD
- OD450 [5]: 0.02 OD
- OD450 [6]: 0.02 OD
- OD450 [7]: 0.03 OD
- OD450 [8]: 0.03 OD
- OD450 [9]: 0.1 OD
- OD450 [10]: 0.03 OD
- OD450 [11]: 0.04 OD
- OD450 [12]: 0.02 OD
- OD450 [13]: 0.03 OD
- OD450 [14]: 0.03 OD
- OD450 [15]: 0.05 OD
- OD450 [16]: 0.04 OD
- OD450 [17]: 2.06 OD
B1: Comparative antibody 2 (Comp-2) scFv, 243LO326 (VH SEQ ID NO: 51 and VL SEQ ID NO: 52 of WO 2022/195028 A2), His-tagged (scFv)
scFv: QVQLVQSGAEVKKPGASVKVSCKASGYTFTSYWMHWVRQAPGQGLEWIGVIYPGNSDTRYNQKFKGRVTITRDTSASTAYMELSSLRSEDTAVYYCTRDYYSNYVYYYAMDYWGQGTTVTVSSGGGGSGGGGSGGGGSGGGGSDIVMTQTPLSLPVTPGEPASISCRSSQSLVHPNRNTYLHWYLQKPGQSPQLLIYKVSNRFSGVPDRFSGSGSGTDFTLKISRVEAEDVGVYYCSQSTHVPWTFGQGTKLEIKHHHHHH

- OD450 [1]: 0.02 OD
- OD450 [2]: 0.07 OD
- OD450 [3]: 0.02 OD
- OD450 [4]: 0.02 OD
- OD450 [5]: 0.02 OD
- OD450 [6]: 0.03 OD
- OD450 [7]: 0.03 OD
- OD450 [8]: 0.04 OD
- OD450 [9]: 0.09 OD
- OD450 [10]: 0.05 OD
- OD450 [11]: 0.05 OD
- OD450 [12]: 0.03 OD
- OD450 [13]: 0.05 OD
- OD450 [14]: 0.03 OD
- OD450 [15]: 0.04 OD
- OD450 [16]: 0.05 OD
- OD450 [17]: 0.13 OD
B2: Comparative antibody 3 (Comp-3) scFv, SR_92R (Somovilla-Crespo et al. 2018), His-tagged (scFv)
scFv: EVKLEESGGGLVQPGGSMKLSCVASGFTFNKFWMNWVRQSPEKGLEWVAEIRLKSNNYATHYAESVKGRFTISRDDSKSSVYLQMNNLRAEDTGIYYCASDGWFAYWGQGTLVTVSAGGGGSGGGGSGGGGSGGGGSDVVMTQTPLSLPVSLGDQASISCRSSQSLVHSNGNTYLNWCLQRPGQSPKSLIYKVSNRFSGVPDRFSGSGSGTDFTLKISRVEAEDLGVYFCSQSTHFPRTFGGGTKLEIKRHHHHHH

- OD450 [1]: 0.04 OD
- OD450 [2]: 0.05 OD
- OD450 [3]: 0.03 OD
- OD450 [4]: 0.02 OD
- OD450 [5]: 0.03 OD
- OD450 [6]: 0.02 OD
- OD450 [7]: 0.03 OD
- OD450 [8]: 0.03 OD
- OD450 [9]: 0.9 OD
- OD450 [10]: 1.54 OD
- OD450 [11]: 0.84 OD
- OD450 [12]: 0.03 OD
- OD450 [13]: 0.04 OD
- OD450 [14]: 0.05 OD
- OD450 [15]: 0.04 OD
- OD450 [16]: 0.03 OD
- OD450 [17]: 0.21 OD
- OD450 [18]: 0.46 OD
- OD450 [19]: 1.69 OD
- OD450 [20]: 1.63 OD
- OD450 [21]: 1.47 OD
B3: CCR9_HUM2 scFv (humanized anti-CCR9 scFv, SEQ ID NO: 17 with C-terminal 6xHis tag) (scFv)
scFv: QVQLVQSGAEVKKPGASVKVSCTASGYSFTDYIIYWVKQAHGQSLEWMGYIDPNNYNTRYSQKFQGKVTITVDKSSTSAYMELNSLTSDDTAVYYCARDVYWGQGTTVTVSSGGGGSGGGGSGGGGSGGGGSDVVMTQTPLSLSVTPGQPASISCRSSQSLVHSNGKTYLQWYLQKPGQSPKLLIYKVSNRFSGVPDRFSGSGSGTDFTLKISRVEAEDVGVYFCAQSTHVWTFGGGTKVEIKRAHHHHHH

- binding result [22]: no binding (tested: 10 ug/mL)
- binding result [23]: no binding (tested: 10 ug/mL)
- binding result [24]: no binding (tested: 10 ug/mL)
- binding result [25]: no binding (tested: 10 ug/mL)
- binding result [26]: no binding (tested: 10 ug/mL)
- binding result [27]: no binding (tested: 10 ug/mL)
- binding result [28]: no binding (tested: 10 ug/mL)
- binding result [29]: no binding (tested: 10 ug/mL)
- binding result [30]: no binding (tested: 10 ug/mL)
- binding result [31]: no binding (tested: 10 ug/mL)
- binding result [32]: no binding (tested: 10 ug/mL)
- OD450 [1]: 0.05 OD
- OD450 [2]: 0.03 OD
- OD450 [3]: 0.05 OD
- OD450 [4]: 0.01 OD
- OD450 [5]: 0.02 OD
- OD450 [6]: 0.02 OD
- OD450 [7]: 0.03 OD
- OD450 [8]: 0.03 OD
- OD450 [9]: 0.07 OD
- OD450 [10]: 0.02 OD
- OD450 [11]: 0.05 OD
- OD450 [12]: 0.05 OD
- OD450 [13]: 0.02 OD
- OD450 [14]: 0.03 OD
- OD450 [15]: 0.02 OD
- OD450 [16]: 0.02 OD
- OD450 [17]: 0.09 OD
B4: Comparative antibody 1 (Comp-1) scFv, SEQ ID NO: 10 from WO2023/037125 A1, His-tagged (scFv)
scFv: QVQLKESGPGLVQPSQTLSLTCTVSGFSVASYDMHWVRLPPGKGLEWMGIIWANGNTHYNSGLKSRLSISRDTSKSQVFLKMNSLQTEDTAIYFCTRGGFAYWGQGTLVTVSSGGGGSGGGGSGGGGSGGGGSDVVMTQTPVSLSVSLGGQVSISCRSSQSLVHNNGNTYLSWYLQKPGQSPQLLIYKVSNRFSGVSDRFSGSGSGTDFTLKISRVEPDDLGVYYCGQGTQYPTFGGGTKLELKHHHHHH
